{"source": "paper PMC9572316", "about": "“Ultrathin Covalent Organic Framework Nanosheets/Ti3C2Tx-Based Photoelectrochemical Biosensor for Efficient Detection of Prostate-Specific Antigen”", "binders": {"B1": {"name": "PSA aptamer (NH2-C6) (ssDNA)", "DNA": "ATTAAAGCTCGCCATCAAATAGC", "modifications": "5'-NH2-C6"}}, "molecular_target": "prostate-specific antigen (PSA) (UniProt P07288 25-261)", "sequence (P07288 25-261)": "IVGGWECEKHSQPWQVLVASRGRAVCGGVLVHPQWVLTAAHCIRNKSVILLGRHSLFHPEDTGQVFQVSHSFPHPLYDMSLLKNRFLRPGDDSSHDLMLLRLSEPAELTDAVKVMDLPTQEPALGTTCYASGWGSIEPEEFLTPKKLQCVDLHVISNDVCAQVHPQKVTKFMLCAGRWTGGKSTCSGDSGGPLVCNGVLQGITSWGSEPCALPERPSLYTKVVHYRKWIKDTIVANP", "assay": "photoelectrochemical aptasensor (aptamer immobilized on TTPA-CONs/Ti3C2Tx/GCE); 10 ng/mL PSA; photocurrent falls from 3.6 to 1.8 uA after PSA; BSA-blocked electrode; PSA incubated 120 min at 4 °C on BSA-blocked aptamer electrode; photocurrent in 0.1 M phosphate buffer pH 7.4, room temperature, no bias (Section 2.3 states Tris-HCl pH 7.4 as optimum)", "settings": "protein: commercial", "data": [{"binder": "B1", "values": [{"measurement": "binding result", "result": "binds"}]}]}
